Experiments:
[1] = target: Low-density lipoprotein (LDL) particles (human) (UniProt P04114); test: negative-staining EM, HDL•CETP•LDL ternary complexes
[2] = target: High-density lipoprotein (HDL) particles (human) (UniProt P02647); test: cell-based or functional assay
[3] = target: Low-density lipoprotein (LDL) particles (human) (UniProt P04114); test: negative-staining EM, count of LDL•CETP complexes without antibody

percent of LDL particles connected to HDL particles by a CETP bridge [1]: 25%
decrease of mean HDL particle size after 4 hours (NS-EM), HDL/CETP/LDL co-incubation without antibody [2]: 25.8%
percentage of binary complexes (LDL•CETP) without H300 [3]: 38%
B1: Recombinant human CETP (cholesteryl ester transfer protein) (protein)
chain: CSKGTSHEAGIVCRITKPALLVLNHETAKVIQTAFQRASYPDITGEKAMMLLGQVKYGLHNIQISHLSIASSQVELVEAKSIDVSIQNVSVVFKGTLKYGYTTAWWLGIDQSIDFEIDSAIDLQINTQLTCDSGRVRTDAPDCYLSFHKLLLHLQGEREPGWIKQLFTNFISFTLKLVLKGQICKEINVISNIMADFVQTRAASILSDGDIGVDISLTGDPVITASYLESHHKGHFIYKNVSEDLPLPTFSPTLLGDSRMLYFWFSERVFHSLAKVAFQDGRLMLSLMGDEFKAVLETWGFNTNQEIFQEVVGGFPSQAQVTVHCLKMPKISCQNKGVVVNSSVMVKFLFPRPDQQHSVAYTFEEDIVTTVQASYSKKKLFLSLLDFQITPKTVSNLTESSSESVQSFLQSMITAVGIPEVMSRLEVVFTALMNSKGVSLFDIINPEIITRDGFLLLQMDFGFPEHLLVDFLQSLS
